Laboratory results: patent US12016935B2, “Methods for detecting CCR2 receptors” (Washington University, priority 2016, dated 2024)
One block for each molecule: values may come before it. Where no end group is shown, it is not given here. [ ]: non-standard residue; d: D form.

How the values were obtained:
[1] = mouse, in vivo
Method: After euthanasia, 1 h post-radiotracer injection, organs of interest were collected, weighed and assayed by gamma counter (Beckman, Brea, CA) as described (23). Standards were prepared and measured in parallel to calculate the percentage of the injected dose per gram of tissue (% ID/g).

CCR2 [2] = molecular target: T1, CCR2 (Homo sapiens, UniProt P41597); test: Autoradiography on human lung tissue sections; assay type: binding; design: Fixed human lung tissue sections; from tissue; host or cells: human lung (COPD explants and donor lungs), fixed paraffin sections; conditions: lung tissue from subjects with COPD
Method: Fixed human lung tissue sections that were deparaffinized and hydrated in PBS were incubated with ^64Cu-DOTA-ECL1i for 5 min (n=4 donor, n=6 COPD). […] Slides were washed 30 times with water then placed in an instant imager (Packard, Meriden, CT) for 30 minutes.
Target sequence in this assay (P41597 whole entry): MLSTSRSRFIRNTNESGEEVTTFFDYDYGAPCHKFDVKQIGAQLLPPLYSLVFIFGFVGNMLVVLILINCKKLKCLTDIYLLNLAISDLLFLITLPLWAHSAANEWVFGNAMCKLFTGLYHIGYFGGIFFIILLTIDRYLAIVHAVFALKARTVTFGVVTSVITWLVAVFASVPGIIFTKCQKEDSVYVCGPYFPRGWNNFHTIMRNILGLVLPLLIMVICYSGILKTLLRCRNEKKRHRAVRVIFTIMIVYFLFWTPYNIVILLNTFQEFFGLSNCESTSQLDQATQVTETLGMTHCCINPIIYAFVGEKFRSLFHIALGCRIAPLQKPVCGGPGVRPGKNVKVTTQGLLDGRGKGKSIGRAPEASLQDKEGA

CCR2 [3] = molecular target: T2, CCR2 (Mus musculus, UniProt P51683)
Method: Instead of a dynamic scan, a static scan was performed at 1, 4 and 24 hours after injection. The PET images were reconstructed with the maximum a posteriori algorithm and analyzed by Inveon Research Workplace. The organ uptake was calculated as percent injected dose per gram (% ID/g) of tissue in three-dimensional regions of interest without the correction for partial volume effect (14).

[4] = mouse, in vivo; remark: listed apart in the source
Method: C57BL/6 mice were used for the biodistribution studies. About 10 μCi of ^64Cu-DOTA-ECL1i in 100 μL saline (APP pharmaceuticals, Schaumburg, IL) were injected via the tail vein. The mice were anesthetized with inhaled isoflurane and re-anesthetized before euthanasia by cervical dislocation at each time point (1 hour after injection, n=4/group). Organs of interest were collected, weighed and counted in a Beckman 8000 gamma counter (Beckman, Fullterton, CA).

[5] = Toxicity study in mice (serum chemistries, histology); assay type: in vivo, mouse; conditions: i.v. 110 μg, 500-fold the estimated human imaging dose; evaluated 24 h later
Method: Toxicity studies were performed by S. Greco, DVM (Dept. of Comparative Med., Washington Univ.).

[6] = system: monocytes (Ly6G^lo, Ly6C^hi); test: Flow cytometry of lung immune cells binding ECL1i-Dylight 550 in vivo; design: species or system mouse; conditions: injected i.v. 24 h post LPS; lungs analyzed one hour later
Method: Mice (n=4 PBS, n=5 LPS) delivered intratracheal PBS or LPS, and 24 hours later were injected intravenously with ECL1i labeled with Dylight 550 (100 μg) to determine the type of inflammatory cell binding ECL1i. Other mice were treated in parallel but not given ECL1i-Dylight 550 (n=4 PBS, n=5 LPS). One h post-injection, a single cell suspension was produced from the lungs, immunostained with immune cell markers (TABLE 2) and analyzed by flow cytometry.
Mice delivered intratracheal PBS or LPS were injected intravenously with ECL1i labeled with Dylight 550, as with the radiolabeled probe, to determine the type of inflammatory cell binding ECL1i. […] Cells were suspended in FACS buffer, counted by hemocytometer, and prepared for flow cytometry. […] Counts from 1 to 10×10^4 cells were collected for each sample on a FACSCalibur (Becton Dickinson), dual laser, flow cytometer using CellQuest Pro software (BD Biosciences), and analyzed using FlowJo software (Ashland, OR). The mean fluorescent intensity was determined by calculating the geometric mean of Dylight 550 fluorescence of the cell types identified in ECL1i-Dylight 550-injected mice and subtracting the fluorescent background of the same cell types from similarly treated mice not injected with ECL1i-Dylight 550.

CCR2 [7] = molecular target: T2, CCR2; test: PET/CT imaging in LPS mouse lung injury model; assay type: in vivo; design: tissue The Jackson Laboratories; host or cells: C57BL/6 mice, lung and aortic arch in vivo (CCR2+ monocytes/macrophages); conditions: PET
Excerpt: The Institutional Animal Care and Use Committee approved these studies. Wild type (n=77) and CCR2-deficient (CCR2^−/−, n=4) mice (C57BL6/J strain) were 8 to 12 weeks of age, of both sexes and approximately 25 g in weight. Mice were used for radiotracer stability studies (n=3) and lung injury studies that included: immunostaining for CCR2 (n=6), in vivo immune cell peptide binding (n=18), lung water weight measurements (n=6), in vivo biodistribution (n=12) and PET/CT imaging (n=36). For the lung injury studies, mice were not treated (naive, n=8), administered intratracheal vehicle control, phosphate buffered saline (PBS, 1 μL/g, n=26) or lipopolysaccharide (LPS, endotoxin, E. coli strain 055:B5, Sigma-Aldrich, St. Louis, MO), at a dose of 2.5 μg/g (n=44), “high” dose, 10 μg/g (n=3), or “low” dose, 0.5 μg/g (n=3) LPS. All CCR2-deficient mice were administered an LPS dose of 2.5 μg/g. Lung water was quantified using wet-to-dry weight ratios in PBS- or intermediate dose LPS-treated mice (n=3/group). Lungs were resected and weighted immediately, then compared to weights obtained after drying at 65° C. for 48 h.
Time-activity curves were calculated from the ROIs from PET images obtained in a subgroup (n=3/group) of the PBS- and LPS-treated mice undergoing imaging at 24 h. […]

human CCR5 = molecular target: T3, human CCR5 (Homo sapiens, UniProt P51681); test: Migration of cells expressing human CCR5; assay type: cell-based
T3 construct: expressed in transfected cells

CCR2 [8] = molecular target: T1, CCR2; design: expressed in transfected cells; host or cells: HEK293; conditions: compared to CCL2 ligand in vitro; cited from earlier work
Target sequence in this assay (P41597 whole entry, species assumed): as the sequence (P41597 whole entry) above

human CX3CR1 = molecular target: T4, human CX3CR1 (Homo sapiens, UniProt P49238); test: Migration of cells expressing human CX3CR1; assay type: cell-based
T4 construct: expressed in transfected cells
T4 sequence (P49238 1-355): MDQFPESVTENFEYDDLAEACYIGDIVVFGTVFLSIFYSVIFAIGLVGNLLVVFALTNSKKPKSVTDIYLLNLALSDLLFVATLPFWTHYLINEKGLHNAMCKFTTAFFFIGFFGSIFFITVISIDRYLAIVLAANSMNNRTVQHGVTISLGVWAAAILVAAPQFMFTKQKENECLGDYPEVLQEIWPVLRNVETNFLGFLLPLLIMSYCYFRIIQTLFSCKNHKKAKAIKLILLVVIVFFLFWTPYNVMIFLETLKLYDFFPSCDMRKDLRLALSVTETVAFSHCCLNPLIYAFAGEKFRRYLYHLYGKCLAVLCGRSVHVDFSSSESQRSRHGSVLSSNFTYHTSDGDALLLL

[9] = system: CD45^+ immune cells in COPD lung; test: Flow cytometry of cells digested from human COPD lung; assay type: cell-based
Method: There were three CCR2 phenotypes (high, intermediate, normal), with implications for future therapies. […] Our tissue bank also includes cells digested from lung for flow cytometry studies. […] We obtain approximately 6-8 explanted lungs per year from COPD subjects. We propose to also examine lung tissue incubated with ECL1i-647 and cells specific antibodies using two-photon microscopy to localize ECL1i.

human CCR1 = molecular target: T5, human CCR1 (Homo sapiens, UniProt P32246); test: Migration of cells expressing human CCR1; assay type: cell-based
T5 construct: expressed in transfected cells
T5 sequence (P32246 1-355): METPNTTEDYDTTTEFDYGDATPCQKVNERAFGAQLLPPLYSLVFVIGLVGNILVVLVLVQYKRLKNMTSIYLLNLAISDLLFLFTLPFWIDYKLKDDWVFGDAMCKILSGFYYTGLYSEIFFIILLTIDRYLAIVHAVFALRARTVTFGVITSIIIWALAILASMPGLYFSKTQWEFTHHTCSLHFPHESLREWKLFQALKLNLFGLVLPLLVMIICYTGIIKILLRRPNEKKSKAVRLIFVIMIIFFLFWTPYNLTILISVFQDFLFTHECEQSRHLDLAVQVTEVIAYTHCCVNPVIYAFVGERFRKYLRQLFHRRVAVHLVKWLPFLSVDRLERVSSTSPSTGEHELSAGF

[10] = system: CCR2^+ inflammatory monocytes; test: CCL2-mediated chemotaxis of monocytes; assay type: cell-based
Excerpt: (§1) CCR2^+ cells migrate in response to CCL2.

CCR2 [11] = molecular target: T1, CCR2; test: Binding of fluorescently-labeled CCL1 to CCR2-expressing HEK293 cells; design: expressed in transfected cells; host or cells: HEK293
Excerpt: as §1
Target sequence in this assay (P41597 whole entry, species assumed): as the sequence (P41597 whole entry) above

human CCR2 (hCCR2) = molecular target: T6, human CCR2 (hCCR2) (Homo sapiens, UniProt P41597); test: CCL2-induced chemotaxis in CHO cells that stably express human CCR2; assay type: cell-based
T6 construct: expressed in transfected cells; host or cells: CHO
Excerpt: as §1

T2 sequence (P51683 whole entry): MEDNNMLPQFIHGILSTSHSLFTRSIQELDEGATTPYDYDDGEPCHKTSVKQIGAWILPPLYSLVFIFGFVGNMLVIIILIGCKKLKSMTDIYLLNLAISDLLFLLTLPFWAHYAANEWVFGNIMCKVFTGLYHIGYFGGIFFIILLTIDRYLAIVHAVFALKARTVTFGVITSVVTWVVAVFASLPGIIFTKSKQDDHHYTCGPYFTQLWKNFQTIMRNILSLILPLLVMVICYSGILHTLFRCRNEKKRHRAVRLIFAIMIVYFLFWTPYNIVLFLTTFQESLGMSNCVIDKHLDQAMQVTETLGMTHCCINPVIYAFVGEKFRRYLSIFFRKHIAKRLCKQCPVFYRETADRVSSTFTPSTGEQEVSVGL
T6 sequence (P41597 whole entry): as the sequence (P41597 whole entry) above
T3 sequence (P51681 whole entry): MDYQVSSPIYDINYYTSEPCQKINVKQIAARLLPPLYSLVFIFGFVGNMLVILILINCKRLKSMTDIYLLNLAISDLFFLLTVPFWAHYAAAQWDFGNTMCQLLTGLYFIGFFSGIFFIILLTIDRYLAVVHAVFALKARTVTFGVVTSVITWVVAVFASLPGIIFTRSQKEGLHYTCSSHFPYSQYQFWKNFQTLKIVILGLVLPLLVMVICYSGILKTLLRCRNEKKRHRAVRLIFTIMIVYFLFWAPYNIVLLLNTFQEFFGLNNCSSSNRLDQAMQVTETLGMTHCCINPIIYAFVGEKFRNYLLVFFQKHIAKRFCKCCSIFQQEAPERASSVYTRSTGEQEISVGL

Molecule: CC(C)C[C@@H](N)C(=O)NCC(=O)N[C@@H](C(=O)N[C@H](Cc1ccccc1)C(=O)N[C@H](CC(C)C)C(=O)N[C@H](CCCCN)C(=O)N[C@H](CSC1CC(=O)N(CCNC(=O)CN2CCN(CC(=O)O)CCN(CC(=O)O)CCN(CC(=O)O)CC2)C1=O)C(=O)O)[C@H](C)O (single isomer, unassigned) [^64Cu-DOTA-ECL1i, metal not drawn]
blood retention, LPS versus PBS treated mice [1]: no difference in blood retention
specificity determined by non-radioactive blockade (CCR2 [2]): 54.5%
PET signal in the grafts blocked by competitive receptor blocking (CCR2 [3]; transplantation into wild type recipients, excess ECL1i): approximately 75%
uptake in the donor lung relative to native lung (biodistribution) [4]: more than twice

Molecule: CC(C)C[C@@H](N)C(=O)NCC(=O)N[C@@H](C(=O)N[C@H](Cc1ccccc1)C(=O)N[C@H](CC(C)C)C(=O)N[C@H](CCCCN)C(=O)N[C@H](CSC1CC(=O)N(CCNC(=O)CN2CCN(CC(=O)O)CCN(CC(=O)O)CCN(CC(=O)O)CC2)C1=O)C(=O)O)[C@H](C)O (single isomer, unassigned) [Cu-DOTA-ECL1i]
toxicity findings [5]: normal serum hepatic and renal chemistries, and histologic examination of lung, liver and kidneys

Molecule: ECL1i-Dylight 550: Maleimide-modified Dylight 550 conjugated to ECL1i on the cysteine residue ([dL]G[dT][dF][dL][dK][dC](Dylight 550 maleimide))
binding to monocytes (Ly6G^lo, Ly6C^hi) induced by LPS [6]: significant binding

share of accumulation in pulmonary grafts due to CCR2-mediated uptake (CCR2 [3]; accumulation of ^64CuAuNCs in native lungs set as background): more than 80%
Molecule: ^64CuAuNCs-ECL1i: ECL1i-conjugated gold nanoclusters doped with ^64Cu; multivalent targeted nanocluster ([dL]G[dT][dF][dL][dK][dC]; also: joined via TA-PEG-Maleimide to a gold nanocluster doped with 64Cu, attachment site not given here)
retention in the blood relative to monovalent ^64Cu-DOTA-ECL1i [4]: six-fold higher

inhibition of migration (human CCR5): did not inhibit the migration
inhibition of migration (human CX3CR1): did not inhibit the migration
inhibition of migration (human CCR1): did not inhibit the migration
effect on binding of fluorescently-labeled CCL1 (CCR2 [11]): did not prevent the binding
induction of migration of CHO-hCCR2 cells (human CCR2 (hCCR2); at concentrations that inhibited CCL2 signaling): did not induce the migration
Molecule: DLeu-Gly-DThr-DPhe-DLeu-DLys-DCys ([dL]G[dT][dF][dL][dK][dC]) [ECL1i]
activity in lungs after intratracheal lipopolysaccharide relative to saline control group (CCR2 [7]): 3.5 fold
CCR2 binding mode (CCR2 [8]): selectively bind CCR2 in a non-competitive way
binding to human lung cells [9]: bound a population of CD45^+ immune cells
inhibition of CCL2-mediated chemotaxis of monocytes [10]: inhibited CCL2-mediated chemotaxis of CCR2^+ inflammatory monocytes, but not of resident monocytes
inhibition of CCL2-induced chemotaxis (human CCR2 (hCCR2); concentration-dependent manner): specifically inhibited CCL2-induced chemotaxis
